B1: LIM and senescent cell antigen-like-containing domain protein 2, residues 13 to 71; numbered along this chain, Q7Z4I7 (parent)
chain: AVCQRCQARFSPAERIVNSNGELYHEHCFVCAQCFRPFPEGLFYEFEGRKYCEHDFQML

Variants of: B1
Assay: abundance fitness (aPCA) (normalised: wild type 0, dead -1); higher = more abundant; growth selection in yeast, the domain comes from the species named
Details: Homo sapiens

Abundance fitness: each site, then its substitutions
C3: E -0.468; K -1.08; W -0.42; L -0.705; I -1.25; Y -0.887; H -1; D -0.894; N -0.687; Q -1.33; F -1.11; T -1.22; S -0.832; R -1.21; M -0.843; A -0.682; G -0.499
S11: R -0.175; K -0.055; M 0.004; F -0.227; E 0.019; H -0.407; W -0.131; T -0.087; G -0.011; D 0.102; I -0.248; V -0.227; Y -0.18; C -0.155; Q -0.075; A 0.137; N -0.105; L -0.053
A8: C 0.03; E 0.327; D -0.119; F -0.039; I 0.073; K 0.166; T 0.015; L 0.064; S 0.076; R 0.181; V 0.071; P -0.797; Q 0.147; W 0.109; G 0.184; N -0.03; H -0.041; M 0.151
V17: T -0.048; L -0.003; M -0.248; E -0.251; W -0.492; K 0.03; H 0.01; Y -0.262; D -0.298; I 0.009; N -0.147; F -0.019; G -0.372; C -0.298; P -0.727; R -0.117
C6: S -0.804; N -0.679; Q -0.878; M -0.34; D -1.03; T -0.935; Y -0.732; E -0.968; H -1.08; G -0.757; I -1.16; K -0.469; A -0.84; R -0.544; P -0.896; W -0.769; F -0.677
I16: K 0.098; L -0.023; Q -0.069; G -0.178; D -0.267; R -0.114; E -0.341; N -0.174; A -0.1; S -0.04; W -0.146; C -0.069; Y -0.2; V -0.194; T 0.07; P -0.104; M 0.026
A13: D 0.142; V -0.327; P -0.076; I -0.581; T 0.035; N 0.186; M -0.22; G -0.182; L -0.039; W -0.372; E 0.078; F -0.781; H 0.017; R -0.211; K 0.053; Y -0.207; C -0.176; Q -0.245
Q4: N 0.679; F -0.161; R -0.073; S 0.029; K -0.007; D 0.357; V -0.228; G -0.127; W -0.528; H 0.035; M 0.209; L 0.184; C 0.065; E -0.133; I -0.216; Y 0.086; T 0.051; P -0.145
N18: D -0.068; V -0.316; H -0.281; K -0.411; A -0.227; E -0.116; W -0.639; Y -0.603; F 0.11; S -0.333; T -0.312; L -0.615; I -0.244; P -0.191; C -0.089; Q -0.06; M -0.323; G -0.15; R -0.202
F10: D -1.05; M -0.002; Y -0.359; N -0.607; H -0.343; R -0.601; T -0.093; S -0.475; I 0.022; A -0.389; Q -0.707; C -0.139; K -0.548; L 0.05; W -0.523; P -0.304
P12: C 0.188; R -0.212; A 0.067; T 0.003; Y -0.093; S 0.014; Q -0.126; I 0.045; F -0.036; L -0.059; H 0.186; G -0.047; D 0.145; N -0.109; E 0.035; M 0.014
V2: D -0.128; L -0.144; G 0.129; R -0.002; P -0.274; W -0.546; I 0.019; A -0.53; F -0.324; E -0.081; H -0.238; K 0.018; T 0.011; M 0.093; Y -0.097; S -0.445; N -0.139; C -0.303
R15: N -0.184; V -0.107; K 0.147; E 0.01; I -0.017; M -0.069; Q -0.021; T 0.037; C -0.198; W -0.595; A -0.178; F -0.467; G -0.144; H -0.168; Y -0.153; L -0.255; S 0.098; D -0.009; P -0.03
R5: M 0.129; C -0.379; W -0.184; P -0.625; H 0.069; G 0.231; Y 0.29; F -0.347; D 0.104; Q 0.066; E 0.037; V 0.119; A 0.186; N -0.081; I 0.078; S 0.209; K 0.052
N20: E -0.282; D 0.313; A -0.005; F -0.359; C -0.038; G 0.084
E14: D -0.075; P -0.577; S -0.034; A 0.048; Y -0.224; N -0.343; F -0.658; R -0.651; M -0.41; T -0.242; H -0.451; L -0.512; I -0.611; V -0.184; Q -0.106; G -0.05; C -0.156; W -0.428
R9: T -0.019; A -0.104; F -0.408; W -0.034; L -0.122; I -0.039; N -0.135; D -0.019; H -0.047; Y -0.292; Q 0.039; E -0.084; V -0.019; C -0.164; M -0.075; P 0.051; S 0.212; G 0.01
Q7: D -0.54; M 0.025; F -0.083; T 0.156; A 0.057; S -0.067; N -0.849; K -0.832; L 0.068; E -0.668; H 0.003; G 0.05; W 0.007; V -0.121; C -0.194; Y -0.11; P -0.802; I -0.231
S19: F -0.22; Y -0.455; P -0.29; A -0.106; K -0.189; I -0.151; G 0.015; R 0.113; E -0.015; W -0.16; T -0.064; D 0.058; V -0.187; H -0.19; C -0.117; L -0.132; Q -0.068
A1: E 0.161; V -0.058; W -0.327; K 0.066; S 0.002; T 0.176; N -0.481; P -0.739; G -0.135; L -0.149; D -0.256; R -0.573; Q -0.313

— the Human Domainome abundance scans (Beltran et al. 2025)
